In PMC5137453 (Nucleic Acids Research, 2016):

Columns and labels:
CPS-6 H148A/P207E = biological target: T1, CPS-6 H148A/P207E (Caenorhabditis elegans, UniProt Q95NM6 63-305, H148A;P207E); test: filter binding
T1 sequence: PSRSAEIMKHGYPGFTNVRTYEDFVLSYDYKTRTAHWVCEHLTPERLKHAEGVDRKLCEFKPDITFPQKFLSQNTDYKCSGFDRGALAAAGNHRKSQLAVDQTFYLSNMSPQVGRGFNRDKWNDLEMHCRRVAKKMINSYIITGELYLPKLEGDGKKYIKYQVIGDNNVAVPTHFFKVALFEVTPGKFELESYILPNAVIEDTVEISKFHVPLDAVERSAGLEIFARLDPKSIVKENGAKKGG

CPS-6 H148A = biological target: T2, CPS-6 H148A (Caenorhabditis elegans, UniProt Q95NM6 63-305, H148A); test: filter binding
T2 sequence: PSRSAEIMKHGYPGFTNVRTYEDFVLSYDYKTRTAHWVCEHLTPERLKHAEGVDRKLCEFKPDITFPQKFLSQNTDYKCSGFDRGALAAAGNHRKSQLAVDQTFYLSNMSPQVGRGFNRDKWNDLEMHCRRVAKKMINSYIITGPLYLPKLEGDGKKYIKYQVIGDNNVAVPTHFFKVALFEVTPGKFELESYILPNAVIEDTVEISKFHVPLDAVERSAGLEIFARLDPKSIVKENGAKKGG

CPS-6 H148A/K131D/F132N = biological target: T3, CPS-6 H148A/K131D/F132N (Caenorhabditis elegans, UniProt Q95NM6 63-305, H148A;K131D;F132N); test: filter binding
T3 sequence: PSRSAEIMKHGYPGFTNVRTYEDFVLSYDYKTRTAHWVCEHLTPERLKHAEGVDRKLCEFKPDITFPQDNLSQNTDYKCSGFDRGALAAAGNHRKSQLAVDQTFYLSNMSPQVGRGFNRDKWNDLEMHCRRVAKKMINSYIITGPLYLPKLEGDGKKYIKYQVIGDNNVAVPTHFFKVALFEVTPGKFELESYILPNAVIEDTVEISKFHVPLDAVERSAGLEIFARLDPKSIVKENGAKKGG

SEC = biological target: the molecule itself; test: SEC
CPS-6 H148A/F122A = biological target: T4, CPS-6 H148A/F122A (Caenorhabditis elegans, UniProt Q95NM6 63-305, H148A;F122A); test: X-ray crystallography
T4 sequence: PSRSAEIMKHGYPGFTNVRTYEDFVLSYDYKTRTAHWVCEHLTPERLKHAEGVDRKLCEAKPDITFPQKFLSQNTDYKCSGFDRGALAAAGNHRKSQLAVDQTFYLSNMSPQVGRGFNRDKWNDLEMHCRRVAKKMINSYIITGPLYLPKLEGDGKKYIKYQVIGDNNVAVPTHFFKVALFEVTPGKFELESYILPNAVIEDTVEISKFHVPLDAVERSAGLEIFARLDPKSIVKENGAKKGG

B1: 48-nt ssDNA (ssDNA)
DNA: ACGCTGCCGAATTCTGGCGTTAGGAGATACCGATAAGCTTCGGCTTAA
B1 was tested, and the Kd (CPS-6 H148A/P207E) was 804 nM, the Kd (CPS-6 H148A) was 159 nM and the Kd (CPS-6 H148A/K131D/F132N) was 659 nM.

B2: CPS-6 H148A (enzyme)
chain: PSRSAEIMKHGYPGFTNVRTYEDFVLSYDYKTRTAHWVCEHLTPERLKHAEGVDRKLCEFKPDITFPQKFLSQNTDYKCSGFDRGALAAAGNHRKSQLAVDQTFYLSNMSPQVGRGFNRDKWNDLEMHCRRVAKKMINSYIITGPLYLPKLEGDGKKYIKYQVIGDNNVAVPTHFFKVALFEVTPGKFELESYILPNAVIEDTVEISKFHVPLDAVERSAGLEIFARLDPKSIVKENGAKKGG
With B2 the “stoichiometry N” value (SEC) was 2.

B3: CPS-6 H148A/F122A (enzyme)
chain: PSRSAEIMKHGYPGFTNVRTYEDFVLSYDYKTRTAHWVCEHLTPERLKHAEGVDRKLCEAKPDITFPQKFLSQNTDYKCSGFDRGALAAAGNHRKSQLAVDQTFYLSNMSPQVGRGFNRDKWNDLEMHCRRVAKKMINSYIITGPLYLPKLEGDGKKYIKYQVIGDNNVAVPTHFFKVALFEVTPGKFELESYILPNAVIEDTVEISKFHVPLDAVERSAGLEIFARLDPKSIVKENGAKKGG
In the case of B3, the “stoichiometry N” value (SEC) is reported as 2.

B4: 8-nt ssDNA (5'-TTTTTTGT-3') (ssDNA)
DNA: TTTTTTGT
B4: binds (CPS-6 H148A/F122A).
